From patent publication US9878046B2, “Adverse side-effects associated with administration of an anti-hyaluronan agent and methods for ameliorating or preventing the side-effects” (Halozyme, Inc., priority 2010, dated 2018)
Where “and” joins values, the source holds several entries; their conditions need not be identical. Identical values can stand only once. Entries after “also recorded” stand apart in the source; their conditions may differ.

What was measured:
[1] = test system: PC3 prostate carcinoma cell line; conditions: 157,500 Units/kg (about 4.5 mg/kg) IV Q3Dx5; cited from earlier work
HA catabolites = HA catabolites in dogs; assay type: in vivo, beagle dog; conditions: after PEGPH20 administration, with or without dexamethasone
Experimental: HA catabolites also were measured as described in Example 6.

tissue HA (hyaluronan) = assay: Histochemical HA staining of skeletal muscle and skin biopsies; assay type: in vivo, beagle dog
Experimental: Twenty-four hours post-dose (Day 60), skeletal muscle biopsies were taken from each of the three treated dogs and also from an untreated control beagle dog. The medial semitendinosis/medial membranosus muscle(s) were targeted for biopsies. The area of the biopsy was shaved using electric clippers and scrubbed using either Chlorhexidine or Povidone-Iodine solutions. Bupivacaine or Lidocaine (2-3 mg/kg) was injected subcutaneously (SC) in the area of the biopsy for local analgesia. The muscle biopsy was collected using a 2-mm-diameter biopsy needle. A gauze sponge was applied with slight pressure to stop any bleeding. Metacam (meloxicam) 0.2 mg/kg was injected SC to control pain. Biopsy samples were placed in Eppendorf tubes or equivalent with approximately 200 μL 10% neutral-buffered formalin (NBF).
Biopsied tissue samples were stained for tissue HA using a highly specific histochemical staining method. […] The cell nuclei were counterstained with DAPI (4′,6-diamidino-2-phenylindole) reagent. Micrographs were then captured using a Zeiss Microscope (Thornwood, N.Y.) coupled with the Spot imaging program (Diagnostic Instruments, Inc).
The medial semitendinosis/medial membranosus muscle(s) were targeted for biopsies. The area of the biopsy was shaved using electric clippers and scrubbed using either Chlorhexidine or Povidone-Iodine solutions. […]

[2] = test system: soluble plasma hyaluronan; assay: Soluble plasma hyaluronan ELISA in BxPC3 model mice; assay type: in vivo; conditions: PEGPH20 4.5 mg/kg alone or + dexamethasone (high or low dose)
Experimental: Plasma samples were additionally used to measure soluble plasma hyaluronan in the control group and each of the treatment groups (R&D Systems Catalog #DY3614; ELISA assay). In the vehicle control group, the plasma hyaluronan levels ranged from 2,000 to 4,000 ng/mL.

[3] = Clinical study (Phase 1-101), musculoskeletal adverse events of PEGPH20
Text: The median age of the patients was age 61 (range 56-86) with tumor types including histiocytoma, colorectal, pancreatic, bladder, carcinoid and ovarian. In all cases, the patients entered the program under pain medication related to their presenting condition but not for study drug-related pain.

[4] = test system: 46 different cytokines, chemokines, acute-phase reactants, and other plasma inflammatory biomarkers; assay: Human inflammation multi-analyte profile (MAP) of patient plasma; assay type: in vivo; conditions: first two patients, single IV dose 0.05 mg/kg
Experimental: The patient plasma samples also were analyzed using a human inflammation multi-analyte profile (MAP) of 46 different cytokines, chemokines, acute-phase reactants, and other plasma inflammatory biomarkers.

[5] = Plasma pharmacokinetics of PEGPH20 (hyaluronidase activity) in patients
Experimental: Plasma samples were stored frozen, and concentrations of PEGPH20 were determined by measuring hyaluronidase activity using a modified turbidimetric assay as described in Example 4. The USP turbidimetirc method used for the determination of hyaluronidase activity awas based on the formation of an insoluble precipitate that occurs when HA binds with acidified serum. PEGPH20 concentrations were expressed as units of hyaluronidase activity (U/mL) as interpolated from a calibration curve. Activity was reported to the nearest 1 U/mL, and the analytical methods were applicable for measuring plasma hyaluronidase concentrations as low as 0.3125 U/mL.

[6] = Hyaluronidase activity (microturbidity assay), specific activity; assay type: biochemical
Experimental: Hyaluronidase activity of soluble rHuPH20 is measured by incubating soluble rHuPH20 with sodium hyaluronate (hyaluronic acid) for a set period of time (10 minutes) and then precipitating the undigested sodium hyaluronate with the addition of acidified serum albumin. The turbidity of the resulting sample is measured at 640 nm after a 30 minute development period.
Dilutions of the sample were prepared in Enzyme Diluent Solutions. The Enzyme Diluent Solution was prepared by dissolving 33.0±0.05 mg of hydrolyzed gelatin in 25.0 mL of the 50 mM PIPES Reaction Buffer (140 mM NaCl, 50 mM PIPES, pH 5.5) and 25.0 mL of sterile water for injection (SWFI), and diluting 0.2 mL of 25% Buminate solution into the mixture and vortexing for 30 seconds. This was performed within 2 hours of use and stored on ice until needed. The samples were diluted to an estimated 1-2 U/mL. […]
The MULTIDROP 384 was prepared to stop the reaction by priming the machine with Serum Working Solution and changing the volume setting to 240 μL. […] The plate was removed and shaken on a plate reader for 10 seconds. After a further 15 minutes, the turbidity of the samples was measured at 640 nm and the hyaluronidase activity (in U/mL) of each sample was determined by fitting to the standard curve.
Specific activity (Units/mg) was calculated by dividing the hyaluronidase activity (U/ml) by the protein concentration (mg/mL).

[7] = single 50 μg/kg dose, individual patients 1 and 2

B1: PEGPH20 (protein)
chain: LNFRAPPVIPNVPFLWAWNAPSEFCLGKFDEPLDMSLFSFIGSPRINATGQGVTIFYVDRLGYYPYIDSITGVTVNGGIPQKISLQDHLDKAKKDITFYMPVDNLGMAVIDWEEWRPTWARNWKPKDVYKNRSIELVQQQNVQLSLTEATEKAKQEFEKAGKDFLVETIKLGKLLRPNHLWGYYLFPDCYNHHYKKPGYNGSCFNVEIKRNDDLSWLWNESTALYPSIYLNTQQSPVAATLYVRNRVREAIRVSKIPDAKSPLPVFAYTRIVFTDQVLKFLSQDELVYTFGETVALGASGIVIWGTLSIMRSMKSCLLLDNYMETILNPYIINVTLAAKMCSQVLCQEQGVCIRKNWNSSDYLHLNPDNFAIQLEKGGKFTVRGKPTLEDLEQFSEKFYCSCYSTLSCKEKADVKDTDAVDVCIADGVCIDAFLKPPMETEEPQIFY
xenograft tumor growth inhibition, previously shown [1]: 34-70% | HA catabolites (HA catabolites): appearance of HA catabolites | hyaluronan staining of skeletal muscle (tissue HA (hyaluronan); 24 h after Day 59 dose, antibody-positive dogs): did not remove extracellular hyaluronan in skeletal muscle samples | hyaluronan staining, post-treatment skeletal muscle and skin (tissue HA (hyaluronan); 24 h after first IV dose, PEGPH20 0.3 mg/kg alone, or 0.3 / 1.0 mg/kg + dexamethasone 4 mg BID): virtually no hyaluronan staining | plasma hyaluronan [2]: no detectable (below limit of quantitation) hyaluronan | dose-limiting toxicity ([3]; 0.5 μg/kg IV every 21 days): No dose-limiting toxicities | musculoskeletal side effects, severity ([3]; 0.5 μg/kg IV every 21 days, three patients): intermittent Grade 1 or transient Grade 2 | dose-limiting toxicity ([3]; 0.5 μg/kg IV twice weekly): met dose-limiting toxicity | severity of muscle/joint pain ([3]; 0.5 μg/kg IV twice weekly, after 2 doses): Grade 3 | musculoskeletal pain leading to discontinuation (summary) ([3]; 0.5 μg/kg in a 21 day cycle): Grade 3 | dose-limiting toxicity ([3]; 0.75 μg/kg IV every 21 days, Grade 3 event after first cycle): not considered a dose-limiting toxicity | musculoskeletal side effects, severity ([3]; 0.75 μg/kg IV every 21 days, cohort and individual patients): intermittent Grade 1 or transient Grade 2; also recorded: Grade 1; also recorded: Grade 3; also recorded: Grade 2 | dose-limiting toxicity ([3]; 1.0 μg/kg IV every 21 days): no dose-limiting toxicities | musculoskeletal symptoms, severity ([3]; 1.0 μg/kg IV every 21 days, one of three patients): Grade 1 | dose-limiting toxicity ([3]; 1.5 μg/kg IV every 21 days, one patient): no dose-limiting toxicities | musculoskeletal pain leading to discontinuation (summary) ([3]; 50.0 μg/kg dose twice weekly, individual patients): Grade 4; also recorded: Grade 3 | duration of pain ([3]; single IV dose 0.05 mg/kg): more than 9 days | onset of stiffness and muscle and joint pain after dosing ([3]; single IV dose 0.05 mg/kg): 6 to 10 h | severity of muscle/joint pain ([3]; single IV dose 0.05 mg/kg, individual patients): Grade 3 | inflammation MAP findings [4]: No notable findings | time course of plasma concentrations ([5]; 0.5 μg/kg to 1.5 μg/kg): concentrations fell below the limit of quantification (BQL) during the first day | plasma concentrations after dosing ([5]; 0.5 μg/kg to 1.5 μg/kg, twelve patients): ≤ 1.5 U/mL | CL [5, 7]: 2.44 mL/h/kg and 3.29 mL/h/kg | V1 (mL/kg), volume of the central compartment [5, 7]: 57.96 mL/kg and 55.93 mL/kg | t1/2α (hr), distribution half-life [5, 7]: 4.77 h and 2.47 h | plasma enzyme at 72 hours after administration ([5]; single IV dose 50 μg/kg): < 2 U/mL | plasma enzyme initially following administration ([5]; single IV dose 50 μg/kg): approximately 30 U/mL | terminal half-life ([5]; single IV dose 50 μg/kg): approximately 2 days | plasma half life ([5]; single IV dose 50 μg/kg, two patients): 28 to 48 h | final enzyme activity ([6]; PEGylated rHuPH20 material at 3.5 mg/mL): 140,000 U/mL | specific activity ([6]; rHuPH20 preparation vs PEGylated form): about 32,000 Units/mg
